This data set is described as follows: yeast display, Sf9 membrane polyspecificity reagent, FACS + sequencing; frameworks hold sequencing errors. The procedure, abridged: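 Nanobodies from a synthetic yeast display library (Saccharomyces cerevisiae BJ5465), induced 36–48 hours with galactose, were stained 1 hour at 4 °C with 10% biotinylated, detergent-solubilized Sf9 membrane reagent, enriched on streptavidin microbeads, then FACS-sorted. Anti-HA (expression) and streptavidin (reagent binding) fluorescence set low and high (top ~1%) gates. Polyreactivity labels come from the gate of origin. Genes were colony-PCR amplified, MiSeq 2 × 250 sequenced and filtered by CDR length.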
Turning to “QVHLVESGGGLVQAGGSLRLTCAASGRIFAHYAMGWYRQAPGKERELVAAISSGGSTYYADSVKGRFTISRDNAKNTVYLQMNSVKPEDTAVYYCNKRPVRRKYDYWGQGTQVTVSS”, the “polyreactivity (PSR sort gate)” value is “low polyreactivity”.

Consider “QVHLVESGGGLVQAGGSLRLTCAASGRIFSSYAMGWYRQAPGKVRELVPAITRGGSTYYADSVKGRFTISRDNAKYTVYLQMNSLKPEDTGVYYCAGRQPYRYWFWGNEDFWGQGSQVTVSS”, for which the “polyreactivity (PSR sort gate)” value is recorded as “high polyreactivity”.

For “QVHLVESGGGLVQAGGSLRLTCAASGRILWSYAMGWYRQAPGKERELVAAITSGTRTNYADSVKGRFTISRDNAKNTVYLQMNSVKPEDTAVFSCNAVSLRYRFDYWGQGTQLTVSS”, the “polyreactivity (PSR sort gate)” value is given as “high polyreactivity”.

As for “QVHLVESGGGLVQAGGSLRLTCAASGRTFGRYAMGWYRQAPGKERELVAAIRYTGGSTYADSVKGRFTISRDNAKNTVYLQMNSLKPEDTAVYYCNRGGAFNTRNEITRYGYWGQVTQVTVSS”, the “polyreactivity (PSR sort gate)” value is reported as “low polyreactivity”.

“QVHLVESGGGLVQAGGSLRLTCAASGRTFGWNVMGWYRQAPGKERELVAAISGSGGSTYYADSVKGRFTISRDNAKNTVYLQMNSLKPEDTAVYYCAALYGPGREYDYWGQGTQVTVSS”: the “polyreactivity (PSR sort gate)” value is “low polyreactivity”.

Regarding “QVHLVESGGGLVQAGGSLSLSCDASGRTFYENAMGWYRQAPGKERELVAAISQSSGSTYYADSVKGRFTISRDNAKNTVYLQMNSLKPEDTAVYYCAAVQGANYYNEFDYWGQGTQVTVSS”, the “polyreactivity (PSR sort gate)” value is on record as “high polyreactivity”.

In the case of “QVHLVESGGGLVQAGGSQRLSCAASGSIFKYYAKAWYRQQPGKERELVATITNGGNTNYADSVYGRFTISRDNPKKTVYLQRNSLKPEDTAVYYCAARLWCKRYSSPTSLQRYDYWRQGTQVTVSS”, the “polyreactivity (PSR sort gate)” value is on record as “high polyreactivity”.

As for “QVHLVESGGGLVQAGGTLRLSCAASGSIFATYGMGSYRQAPGKERELVAAITSSGGSTYYADSVKGRFTISRDHAKNTVYLQMNSLKPEDTAVYYFAADSYIIWYGSVVSYGEDSWGQGTQVTVSS”, the “polyreactivity (PSR sort gate)” value is recorded as “low polyreactivity”.

In the case of “QVHLVESGGGLVQEGGSLPLTCAASGSTLRYYDMGWYRQPPRKERELFAAITTSGDDTYYADSVKRLFTISRDNAKYIVYLQMNSLKPEDTAVYYCAADGYGGHKYELESWGQGTQVTVSS”, the “polyreactivity (PSR sort gate)” value is given as “low polyreactivity”.

“QVHLVESGGGLVQEGGSLRISCAASGSSFSHYTMGWYIQAPGKERELVAAISYRGGSTYYADSLKGRFTISRDNAKNTVYFQSNSLKPEDTAVYYCAAVGYYSTVRRYDYWGQRTQVTVSS”: the “polyreactivity (PSR sort gate)” value is recorded as “low polyreactivity”.

Turning to “QVHLVESGGGLVQEGGSLRLSCAASGIIFLWYTMGWYRQAPGKERELVATISWGGGSTYADSVNGRFTISRDNAKNTVYIQMYILQPEDTAVYYCAADNRDFRGQGYDYWGQGTQVTVSS”, the “polyreactivity (PSR sort gate)” value was “low polyreactivity”.

With “QVHLVESGGGLVQEGGSLRLSCPACGSTIRGNAMGWYRQAPGKERELVADITRNGGRTYYADSVKGRFTISRDNAKNNVYLQMNSLKPEDTAVYYCAKRDAYCVTQRNMDYWGQGTQVTVSS”, the “polyreactivity (PSR sort gate)” value was “high polyreactivity”.

Take “QVHLVESGGVLVQAGGSLRLSCAASGSTFLYYAMGRYRQAPGKEREFVASISGSGGSTNYADSVKGRFTISRDNAKNTVSLQMNSLKPEDTAVYYCAKEYVTEFQGYYDWGQGSQVTVSS”: the “polyreactivity (PSR sort gate)” value is on record as “low polyreactivity”.

Turning to “QVHLVESGGVLVQAGGSLSLSCAASGRTFIRNAMGWYRQAPGKERELVAAINSGGITNYADSVKGRFTISRDNAKNTVYLQMNSLKPEDTAVYYCNARQVLYGLYLRAYPYEYWGQGTQVTVSS”, the “polyreactivity (PSR sort gate)” value is given as “low polyreactivity”.

With “QVHLVESGVGLVQAGGSLRLSCAAYGSTCGWYAMGWYRQAPGKERELVASITWDGGRTYYADSVKGRFTISRDNAKNTVYLQMISQKPEDTAVYYCAARGVSSPLNYWGQGNQVTVSS”, the “polyreactivity (PSR sort gate)” value is reported as “low polyreactivity”.

With “QVHLVESRGGLVQAGGSLRLSCAASGMGWNRHAPGKERELVATIPWSDGITYADSVKGRFTISRDNAKNTVYLQMNSLKQEVTAVYYCNADWDQTGTVFFSFGLREMDSWGQGTQVTVSS”, the “polyreactivity (PSR sort gate)” value is listed as “low polyreactivity”.

Take “QVHLVESRGVLVQAGGSLRLSCAASGFTFNRNAMGWYRQAPGKERELVAAISTSGGRTYYADSVKGRFTISRDNAKNTVYLHMNSLKPEDTAVYYCAADGIYPVGVDYWGQGTQVTVSS”: the “polyreactivity (PSR sort gate)” value is “high polyreactivity”.

As for “QVHLVESRGVLVQAGGSLRLSCAASGRTFQPYAMGWYRQSPGKERELVADITWNTGRTYYADSVKGRFTISRDNAKNTVYLQMNSLIPEDTAVYYCAGDDLGDYRFYKIYDYWGQGTQVTVSS”, the “polyreactivity (PSR sort gate)” value is reported as “high polyreactivity”.

On to “QVHLVESVGGLDQAGGSLRLSCAASGFIFVRYAMGWYRQAHGKEREFVAVISRRGGSTHYADSVKARFTISRDNAKNTVYLQMNSLKPEDTAVYYCNVRQGGPTVTWEYDYWGQGTQGTVSS”, for which the “polyreactivity (PSR sort gate)” value is given as “high polyreactivity”.

Regarding “QVHLVESVGGLVQAGGSLRLSCAASGFIFNRNAMGRYRQAPGKERELVAAITRAGSTSYADSVKGRFTISRDNAKNTVYLQMNSLKPEDTGVYYCAAKPFWLYAPRGWRYHYGYWGQGTQVTVSS”, the “polyreactivity (PSR sort gate)” value is recorded as “high polyreactivity”.

As to “QVHLVESVGGLVQAGGSLRLSCAASGRTFGGYAMGWYRQAHGKERELVAAIRRSGGSTYYADSVKGRFTISRDNAKNTVYLQMNSVKPEDTAVYYCAASGIYNVRMYYWGQGTLVTVSS”, the “polyreactivity (PSR sort gate)” value is reported as “high polyreactivity”.

“QVHLVESWGCLVQAGGSLRLSCAASGSTFTGYAMGWYRHAPGKESEMVAAISRSGGSTSAADSVKGRFTISRDNAKNTVYLQMNSLKPEDTAVYYCAAQVQGTTRDKQRGGIGELDYWGQGTQVTVSS”: the “polyreactivity (PSR sort gate)” value is given as “low polyreactivity”.

“QVHLVESWGGLVQAGGSLRLSCAASGSTFSDYAMGWYRQAPGKERELVAGITGGGGTYYADSVKGRFTISRDNAKNTVSLHMNSLTPEDTARYYCAAGRRHGFGYWGQGTQVTVSS”: the “polyreactivity (PSR sort gate)” value is given as “low polyreactivity”.

Consider “QVHLVETGGGLVQAGGSLRLSCAASGSTFSFNAMGWYRQAPGKERELVAAISTSGGDTYYADSVKGRFTISRDNAKNTVYLQMNSLKPEDTAVYYCAAEYQVPGGSWMDYWGQGTQVTVSS”, for which the “polyreactivity (PSR sort gate)” value is given as “high polyreactivity”.

With “QVHLVQSGGGIVQAGGSLRLSCAASGIIIRRYVMGWYRQAPGKERELVATISSSGGSTYYADSVKGRFTISRDNAKTTVYLQMNSLKPEDTAVYYCAVRYYGSGRYYYTYYSWGQGTQVTVSS”, the “polyreactivity (PSR sort gate)” value is “high polyreactivity”.

As for “QVHRGESGGGLVQAGGSLRLSCPASGFIFRYYPMGWYRQAPGKESELVASISYSGGTTYYADSVKGRFTISRDNAKNTVYLQMNSLKPEDTAVYYCNVYSRTHYQTYTDDYWGQGTQVTVSS”, the “polyreactivity (PSR sort gate)” value is listed as “high polyreactivity”.

Regarding “QVKHVESGGGLVQAGGSLRLSCAASGFTFYTYAMGWYRQKPGKESELVATISSGGRTNYADSVKGRFTISRDNAKNTVYLQMNSLKPEDTAVYYCYKRHRGGAVRFDSWGQGTQVTVSS”, the “polyreactivity (PSR sort gate)” value is recorded as “low polyreactivity”.

For the sequence “QVKHVESVGGLVQAGGSLRLSCAASGITFVRNAMGWSRQAPGKETDLVAAISSGGGSTYYADSVKGRFTISRDNAKNTVYLQMNSLKPEDTAVYYCNAQGFIYYWLRYDYWGQGTQVTVSS”, the “polyreactivity (PSR sort gate)” value is “high polyreactivity”.

As for “QVKILESGGGLVQAVCSLRLSCASGSTYLYAMGRYRQAPVKEREMVATISSTGSTYYADSVKGRFTISRDNAKNTVYLQMNSLKPEDTAVYYCAADVCNNGWIYGSYDEYDYWGQGTQVTVSS”, the “polyreactivity (PSR sort gate)” value is on record as “high polyreactivity”.

Turning to “QVKLEESGGGLVQAGGSLRLSCAASGFIFGSYAMGWYRQAPGKERELVAVISSSGGRTYYADSVKGRFTISRDNAKNTVYLQMNSLKPEDTAVYYCAAPWIARKYSPSEYDWGQGTQVTVSS”, the “polyreactivity (PSR sort gate)” value is on record as “high polyreactivity”.

The values above are taken from the nanobody polyreactivity screen of Harvey et al. (2022).
